The text below walks through data of US20210238298A1 (ALLIGATOR BIOSCIENCE, published 2021).

The target of test [1] is T1, Human OX40 (R&D systems, #3358_OX) (human, UniProt P43489 29-216).
T1 construct: Bought; Several catalogue numbers are given for it; also called human OX40 (R&D Systems, 3388-OX); OX40-Fc (R&D systems, #3358_OX); not shown: Fc part
T1 sequence: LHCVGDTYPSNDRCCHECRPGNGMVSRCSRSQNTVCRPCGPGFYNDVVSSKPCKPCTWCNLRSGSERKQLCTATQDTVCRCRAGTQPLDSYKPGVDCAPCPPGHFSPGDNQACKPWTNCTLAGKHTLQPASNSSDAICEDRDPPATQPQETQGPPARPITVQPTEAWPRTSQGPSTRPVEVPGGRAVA
Briefly: ELISA, coated human OX40. The method, then:
ELISA plates were coated with human OX40 (R&D Systems, 3388-OX), CD40 (Ancell), or CD137 (R&D Systems) at 0.1 or 0.5 μg/ml. The ELISA plates were washed with PBST and then blocked with PBST+2% BSA for 1h at room temperature and then washed again with PBST. The antibodies were added in dilution series to the ELISA plates for 1 h at room temperature and then washed with PBST. Binding was detected using goat anti human kappa light chain HRP, incubated for 1h at room temperature. SuperSignal Pico Luminescent was used as substrate and luminescence was measured using Fluostar Optima.
Background: In an ELISA, binding on a coated surface is turned into a signal by an enzyme label.

Test [2] deals with T2, OX40 chimera 1544: human OX40 with mouse domains 1A, 1B and 2A (aa 30-81), on FreeStyle 293-F cells (human; mouse, UniProt P47741 26-77).
T2 construct: domain: 1A, 1B and 2A
T2 sequence: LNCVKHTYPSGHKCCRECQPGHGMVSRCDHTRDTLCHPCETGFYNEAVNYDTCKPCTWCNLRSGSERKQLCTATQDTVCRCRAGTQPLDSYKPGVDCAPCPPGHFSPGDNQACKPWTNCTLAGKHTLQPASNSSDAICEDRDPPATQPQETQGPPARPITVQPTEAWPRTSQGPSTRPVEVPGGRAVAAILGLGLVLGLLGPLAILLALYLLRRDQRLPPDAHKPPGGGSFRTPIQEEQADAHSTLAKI
Briefly: flow cytometry, 293-F transfectants. The method, then: (§1) The mouse/human chimeras were transiently transfected into FreeStyle 293-F cells (Invitrogen), incubated 48 hours in FreeStyle 293 expression medium (Invitrogen) 37 C, 8% CO₂, 135 rpm. The transfected cells were incubated with human OX40 antibodies, human OX40L (hOX40L, RnD Systems), mouse OX40L (mOX40L, RnD Systems) and controls for 30 min 4° C. and then detected with a-huIgG-PE (Jackson Immunoresearch) 30 min 4° C. Cells were analyzed with FACS Verse (BD Biosciences). Binding to the different chimeric constructs were calculated as relative (mean fluorescence intensity) MFI compared to the binding of the isotype control.
(Flow cytometry measures light scatter and fluorescence of single cells or particles in a stream.)

Test [3] addresses T3, OX40 chimera 1545: human OX40 with mouse domains 1B, 2A and 2B (aa 43-107), on FreeStyle 293-F cells (human; mouse, UniProt P47741 39-103).
T3 construct: domain: 1B, 2A and 2B; Limits derived as for 1544
T3 sequence: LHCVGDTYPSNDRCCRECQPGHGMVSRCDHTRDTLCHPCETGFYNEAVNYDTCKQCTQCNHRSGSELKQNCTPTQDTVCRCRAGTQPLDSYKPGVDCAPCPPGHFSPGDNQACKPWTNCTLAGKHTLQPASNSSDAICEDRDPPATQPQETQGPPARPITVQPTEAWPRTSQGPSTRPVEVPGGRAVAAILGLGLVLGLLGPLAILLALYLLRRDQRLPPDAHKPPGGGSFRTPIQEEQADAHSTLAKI
Briefly: flow cytometry, 293-F transfectants. The method, then: as §1

The target in test [4] is T4, OX40 chimera 1546: human OX40 with mouse domains 2A, 2B and module 3 (aa 66-126), on FreeStyle 293-F cells (human; mouse, UniProt P47741 62-124).
T4 construct: domain: 2A, 2B and module 3; Limits derived as for 1544
T4 sequence: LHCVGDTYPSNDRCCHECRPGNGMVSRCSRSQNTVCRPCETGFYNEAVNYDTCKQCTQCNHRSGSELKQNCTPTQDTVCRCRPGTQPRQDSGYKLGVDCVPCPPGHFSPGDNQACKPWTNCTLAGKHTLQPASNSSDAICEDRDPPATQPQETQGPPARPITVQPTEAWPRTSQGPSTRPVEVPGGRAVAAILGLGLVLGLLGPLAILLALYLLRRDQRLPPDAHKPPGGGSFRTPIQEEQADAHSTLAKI
Briefly: flow cytometry, 293-F transfectants. The method, then:
as §1

In test [5] the target is T5, OX40 chimera 1547: human OX40 with mouse domain 2B, module 3 and domain 4A (aa 83-141), on FreeStyle 293-F … (human; mouse, UniProt P47741 79-139).
T5 construct: domain: 2B, module 3 and 4A; Limits derived as for 1544
T5 sequence: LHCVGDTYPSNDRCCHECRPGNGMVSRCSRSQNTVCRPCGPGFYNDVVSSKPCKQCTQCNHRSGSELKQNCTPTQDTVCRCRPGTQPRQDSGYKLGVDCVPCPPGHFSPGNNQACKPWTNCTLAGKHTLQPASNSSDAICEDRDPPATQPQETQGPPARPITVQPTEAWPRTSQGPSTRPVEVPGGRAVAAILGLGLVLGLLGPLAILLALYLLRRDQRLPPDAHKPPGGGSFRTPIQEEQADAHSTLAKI
Briefly: flow cytometry, 293-F transfectants. How it is done: as §1

For test [6], the target named is T6, OX40 chimera 1548: human OX40 with mouse module 3 and domains 4A and 4B (aa 108-167), on FreeStyle 293-F cells (human; mouse, UniProt P47741 104-165).
T6 construct: domain: module 3, 4A and 4B; Limits derived as for 1544
T6 sequence: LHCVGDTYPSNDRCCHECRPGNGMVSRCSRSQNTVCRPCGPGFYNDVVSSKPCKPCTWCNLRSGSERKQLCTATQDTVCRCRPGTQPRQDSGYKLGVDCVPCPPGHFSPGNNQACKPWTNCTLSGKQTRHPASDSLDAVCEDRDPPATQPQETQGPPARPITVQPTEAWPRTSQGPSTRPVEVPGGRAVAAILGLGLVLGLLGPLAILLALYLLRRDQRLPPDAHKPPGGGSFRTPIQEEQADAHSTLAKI
The test is described as follows: flow cytometry, 293-F transfectants. How it is done:
as §1

Test [7] concerns the target T7, construct 84: full length OX40 sequence, on FreeStyle 293-F cells (human, UniProt P43489 29-277).
T7 sequence: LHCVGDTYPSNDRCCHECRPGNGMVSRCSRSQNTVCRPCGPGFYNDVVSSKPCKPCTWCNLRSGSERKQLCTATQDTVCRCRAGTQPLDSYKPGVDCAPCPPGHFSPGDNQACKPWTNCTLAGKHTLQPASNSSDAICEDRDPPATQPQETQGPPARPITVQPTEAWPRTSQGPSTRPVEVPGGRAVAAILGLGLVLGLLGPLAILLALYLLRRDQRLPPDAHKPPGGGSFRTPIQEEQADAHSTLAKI
The test is described as follows: flow cytometry, 293-F transfectants. The method, then: as §1

B1: anti-OX40 antibody 1168/1135 (antibody, V domains shown)
VH: EVQLLESGGGLVQPGGSLRLSCAASGFTFSGSSMSWVRQAPGKGLEWVSSISYYGGYTYYADSVKGRFTISRDNSKNTLYLQMNSLRAEDTAVYYCARYFPHYYFDYWGQGTLVTVSS
VL: not shown
notes: Tested as IgG
One may read the EC50 as the concentration giving half of the maximal effect. Low readings indicate an effect from little substance, high ones a need for much substance. Regarding B1, the EC50 in test [1] is less than 1 nM. For the same molecule, the “relative MFI vs isotype control” value in test [2] is 13.2; in test [3], 46.6; in test [4], 0.9; in test [5], 1; in test [6], 1; in test [7], 29.6.

B2: anti-OX40 antibody 1164/1135 (antibody, V domains shown)
VH: EVQLLESGGGLVQPGGSLRLSCAASGFTFYGSSMYWVRQAPGKGLEWVSGIYSSGGYTSYADSVKGRFTISRDNSKNTLYLQMNSLRAEDTAVYYCARGVPHGYFDYWGQGTLVTVSS
VL: not shown
notes: Tested as IgG
In test [1], B2 registered an EC50 of less than 1 nM. Besides, the “relative MFI vs isotype control” value in test [2] turned out to be 14; in test [3], 37.3; in test [4], 0.9; in test [5], 1; in test [6], 1; in test [7], 27.5.

B3: anti-OX40 antibody 1542/1135 (antibody, V domains shown)
VH: EVQLLESGGGLVQPGGSLRLSCAASGFTFGSSSMYWVRQAPGKGLEWVSGIGYYSYSTSYADSVKGRFTISRDNSKNTLYLQMNSLRAEDTAVYYCARGYPHHYFDYWGQGTLVTVSS
VL: not shown
notes: Tested as IgG
For the molecule B3, the EC50 in test [1] was less than 1 nM. The “relative MFI vs isotype control” value is 7.1 in test [2]; 40.2 in test [3]; 0.9 in test [4]; 1 in test [5]; 1.2 in test [6]; 29.4 in test [7].

B4: anti-OX40 antibody 1482/1483 (antibody, V domains shown)
VH: EVQLLESGGGLVQPGGSLRLSCAASGFTFSSYAMSWVRQAPGKGLEWVSYISYYSGYTYYADSVKGRFTISRDNSKNTLYLQMNSLRAEDTAVYYCARGYGYLDYWGQGTLVTVSS
VL: DIQMTQSPSSLSASVGDRVTITCRASQSISSYLNWYQQKPGKAPKLLIYAASSLQSGVPSRFSGSGSGTDFTLTISSLQPEDFATYYCQQYGSLLTFGQGTKLEIK
notes: Tested as IgG
B4 came in with an EC50 in test [1] of less than 1 nM. In addition, the “relative MFI vs isotype control” value in test [2] came out at 8.4; in test [3], 44.4; in test [4] it was 0.9; in test [5] it was 1; in test [6] it was 1.1; in test [7], 24.9.

B5: anti-OX40 antibody 1524/1525 (antibody, V domains shown)
VH: EVQLLESGGGLVQPGGSLRLSCAASGFTFGSYYMGWVRQAPGKGLEWVSSIGSYYGYTYYADSVKGRFTISRDNSKNTLYLQMNSLRAEDTAVYYCARHDYGALDYWGQGTLVTVSS
VL: DIQMTQSPSSLSASVGDRVTITCRASQSISSYLNWYQQKPGKAPKLLIYAASSLQSGVPSRFSGSGSGTDFTLTISSLQPEDFATYYCQQYGPSGLFTFGQGTKLEIK
notes: Tested as IgG
In test [1], B5 displayed an EC50 of less than 1 nM. For the same molecule, the “relative MFI vs isotype control” value turned out to be 1.5 in test [2]; 0.9 in test [3]; 0.9 in test [4]; 1 in test [5]; 15.4 in test [6]; 31.4 in test [7].

B6: anti-OX40 antibody 1526/1527 (antibody, V domains shown)
VH: EVQLLESGGGLVQPGGSLRLSCAASGFTFSGYSMYWVRQAPGKGLEWVSGIGYSGYGTYYADSVKGRFTISRDNSKNTLYLQMNSLRAEDTAVYYCARYYFHDYAAYSLDYWGQGTLVTVSS
VL: DIQMTQSPSSLSASVGDRVTITCRASQSISSYLNWYQQKPGKAPKLLIYAASSLQSGVPSRFSGSGSGTDFTLTISSLQPEDFATYYCQQYGSDSLLTFGQGTKLEIK
notes: Tested as IgG
The molecule B6 yielded an EC50 in test [1] of less than 1 nM. The “relative MFI vs isotype control” value amounted to 1.1 in test [2]; 1.3 in test [3]; 0.9 in test [4]; 1 in test [5]; 12.7 in test [6]; 21.4 in test [7].
